Paper PMC2821871 (Biochemistry, 2010)
One block for each binder: values may come before it. No end group written: not given here. *: point of attachment. Biotin = O=C1N[C@H]2[C@H](CS[C@H]2CCCCC(=O)*)N1

Legend:
[1] = target: T1, CR17 of LRP (human, UniProt Q07954 2770-2817)
T1 chain (looked up): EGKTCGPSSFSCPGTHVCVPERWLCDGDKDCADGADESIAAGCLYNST

[2] = target: CR16-18 of LRP (P. pastoris) (human, UniProt Q07954 2731-2857); assay: SPR
Chain of CR16-18 of LRP (P. pastoris) (Q07954 2731-2857): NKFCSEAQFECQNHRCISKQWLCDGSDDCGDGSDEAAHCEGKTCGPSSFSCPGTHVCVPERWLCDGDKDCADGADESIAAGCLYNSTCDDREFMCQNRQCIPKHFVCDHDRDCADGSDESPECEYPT

KD (Global) [1]: 3.84 ± 0.801 mM | KD (Largest) [1]: 2.76 ± 0.361 mM | KD (Sum) [1]: 3.78 ± 0.375 mM | Kd [1]: 3.46 mM
B1: Ub-ApoE(130-149)(K143/146A) (peptide, UniProt P02649 148-167, looked up)
chain: TEELRVRLASHLRALRARLL

Kd [2]: ~0.0002 mM
B2: biotinylated ApoE(141-155)^2 peptide (peptide, UniProt P02649 159-173, looked up)
peptide: Biotin-LRKLRKRLLRDADDLLRKLRKRLLRDADDL

Kd [1]: > 5 mM
B3: Ub-ApoE(130-140) (peptide, UniProt P02649 148-158, looked up)
chain: TEELRVRLASH
